The values that follow come from PMC9547286, “LOXL2-dependent deacetylation of aldolase A induces metabolic reprogramming and tumor progression^☆” (Redox Biology, 2022).

In the assay the target is T1, LOXL2-Flag (human, UniProt Q9Y4K0 26-774).
T1 construct: Lysyl oxidase-like 2 (LOXL2), human, full-length form (774 aa by the printed limits of its C-terminal domain); also called Flag-tagged LOXL2; source: HEK293T, transfected, immunopurified
T1 sequence (looked up): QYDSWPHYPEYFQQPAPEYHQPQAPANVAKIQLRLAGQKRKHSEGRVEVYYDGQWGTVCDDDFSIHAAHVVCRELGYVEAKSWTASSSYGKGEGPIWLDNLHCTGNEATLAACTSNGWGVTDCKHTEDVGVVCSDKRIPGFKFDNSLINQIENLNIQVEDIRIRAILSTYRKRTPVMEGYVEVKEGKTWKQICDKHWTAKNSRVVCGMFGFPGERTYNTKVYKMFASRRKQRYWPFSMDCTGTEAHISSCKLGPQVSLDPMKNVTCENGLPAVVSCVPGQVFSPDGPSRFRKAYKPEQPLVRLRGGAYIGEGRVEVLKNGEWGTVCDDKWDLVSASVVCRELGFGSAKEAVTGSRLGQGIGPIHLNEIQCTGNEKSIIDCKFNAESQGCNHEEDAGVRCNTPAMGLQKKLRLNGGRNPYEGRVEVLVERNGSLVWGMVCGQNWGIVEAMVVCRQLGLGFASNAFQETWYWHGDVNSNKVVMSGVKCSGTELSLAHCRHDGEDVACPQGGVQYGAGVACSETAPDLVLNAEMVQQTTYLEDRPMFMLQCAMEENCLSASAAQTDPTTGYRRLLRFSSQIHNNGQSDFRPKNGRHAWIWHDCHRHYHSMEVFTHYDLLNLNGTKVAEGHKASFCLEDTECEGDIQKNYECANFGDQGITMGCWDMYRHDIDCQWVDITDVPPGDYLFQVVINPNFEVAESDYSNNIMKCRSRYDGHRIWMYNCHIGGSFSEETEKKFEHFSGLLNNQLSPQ
The assay can be described thus: pull-down; Purified GST-aldolase A or GST from bacteria on glutathione resins, incubated with immunopurified LOXL2-Flag or L2Δ13-Flag from HEK293T at 4 °C for 2 h; immunoblot with anti-Flag. The note with it: both partners purified.

B1: GST-aldolase A (enzyme, human)
chain: PYQYPALTPEQKKELSDIAHRIVAPGKGILAADESTGSIAKRLQSIGTENTEENRRFYRQLLLTADDRVNPCIGGVILFHETLYQKADDGRPFPQVIKSKGGVVGIKVDKGVVPLAGTNGETTTQGLDGLSERCAQYKKDGADFAKWRCVLKIGEHTPSALAIMENANVLARYASICQQNGIVPIVEPEILPDGDHDLKRCQYVTEKVLAAVYKALSDHHIYLEGTLLKPNMVTPGHACTQKFSHEEIAMATVTALRRTVPPAVTGITFLSGGQSEEEASINLNAINKCPLLKPWALTFSYGRALQASALKAWGGKKENLKAAQEEYVKRALANSLACQGKYTPSGQAGAAASESLFVSNHAY
notes: Aldolase A (fructose-bisphosphate aldolase A), human; also called GST-tagged aldolase A; GST-Aldolase A fusion protein; source: bacteria, purified recombinant, retained on glutathione resins
Take B1: the binding result was “binds”.
